Consider nine molecules from patent publication US20220265709A1.

Positions count from the first letter of the chain named.

The labels stand for the following.
B1: anti-BCMA sdAb BCMA8 (VHH, part only)
VHH: QVQLVESGGGSVQAGGSLRLSCAASGGTRSWNYMAWFRQAPGKEREDVAIIDNVGSTRYADSVKGRFTISQDTAQNTLYLQMNSLKPEDTAMYYCAARVSWCEDPPCGFDYWGQGTQVTVSS
modifications: affinity tag
B2: anti-BCMA sdAb BCMA9 (VHH, part only)
VHH: QVQLVESGGGSVQAGGSLRLSCKSSGAPYSSNCMAWFRQTPGKGREGVATIDLASHDTYYADSVKGRFTISRDNAKNTMYLQMNSLKPEDTAMYYCAATSWWPCTTFNGGYANWGQGTQVTVSS
modifications: affinity tag
B3: anti-BCMA sdAb BCMA12 (VHH, part only)
VHH: B2 VHH with Q3H, P28T, G44E, D57G, N84S, S85G, K87R, M93L, N113S
modifications: affinity tag
B4: anti-BCMA sdAb BCMA7 (VHH, part only)
VHH: QVHLMESGGGSVQSGGSLRLSCAASGYTYSSYCMAWFRQAPGKEREGVAAIASDGSTYYTDSVKGRFTISQDNAKNTLYLQMNSLKPEDTAMYYCGADPVGCSWPDYWGQGTQVTVSS
modifications: affinity tag
B5: anti-BCMA sdAb BCMA1 (VHH, part only)
VHH: QVQLVESGGGSVQAGGSLRLSCKASGAIYDTNCMAWFRQTPGKEREGVATIDLGNPITYYADSVKGRFTISRDNAKNTMYLQMNSLEPEDTAMYYCAATSWWPCTTFNAGYANWGQGTQVTVSS
modifications: affinity tag
B6: anti-BCMA sdAb BCMA13 (VHH, part only)
VHH: B5 VHH with Q3H, E87K, T105P, T106A, F107N, A109V
modifications: affinity tag
B7: anti-BCMA sdAb BCMA11 (VHH, part only)
VHH: QVQLVESGGGVVQPGGSLRLSCAASGFAFSNYAMTWGRQAPGQRLEWVSTIDSGGGSTTYSDSVKGRFTISRDNAKNTLYLQLNNLKSEDTAVYYCSENVDCNGDYCYRANYWGQGTQVTVSS
modifications: affinity tag
B8: anti-BCMA sdAb BCMA10 (VHH, part only)
VHH: QVQLAESGGGLVQPGGSLRLSCAGSGFTFSSYDMNWVRQAPGKGLERVSTTFNGDDGTNYADSVLGRFTASRDKAKNTLYLQMNSLKTEDTAVYYCAAAVPGVDWYDTTRYKYWGQGTQVTVSS
modifications: affinity tag
B9: anti-BCMA sdAb BCMA6 (VHH, part only)
VHH: QMQLVESGGGSVQAGGSLRLSCTASGYTFDDSAMGWYRQAPGNECELVSSISSDGSTYYSDSVKGRFTISQDNAKNTMYLQMNSLKPEDTAVYSCAASSGEDGGSWSTPCHFFGYWGQGTQVTVSS
modifications: affinity tag

Chain of His-tagged human BCMA (ACRO Biosystems, Cat. #: BCA-H522y) (human) (Q02223 1-54): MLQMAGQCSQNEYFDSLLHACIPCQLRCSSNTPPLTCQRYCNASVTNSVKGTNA

The first assay concerns the target Fc-fused Cynomolgus BCMA (ACRO Biosystems, Cat. #: BCA-C5253) (cynomolgus). Briefly: SPR (BIAcore T200) affinity ranking; crude sdAb captured via tag, antigen at 100 nM. For orientation: Surface plasmon resonance follows binding to a sensor surface in real time, without labels.
By Kd is commonly meant the constant that tells how readily two partners part at equilibrium. Low readings indicate a tighter complex, high ones a looser complex. As a reminder, the koff is a measure of how fast the partners let go of each other. The molecule B1 displayed a Kd of 13 nM and a koff of 560 s⁻¹.

As usually defined, the kon is a measure of how fast the partners come together. A low value points to slower complex formation. Take B2: the dissociation constant (Kd) was 2.4 nM, the koff is 0.0015 s⁻¹ and the kon amounted to 650000 M⁻¹ s⁻¹.

B3 came in with a Kd of 4.3 nM, a koff of 0.004 s⁻¹ and a kon of 940000 M⁻¹ s⁻¹.

Regarding B4, the Kd is 43 nM, the koff came to 0.056 s⁻¹ and the association rate constant (kon) was 1.3e+06 M⁻¹ s⁻¹.

In the case of B5, the Kd amounted to 0.64 nM, the koff was 0.00043 s⁻¹ and the kon is 670000 M⁻¹ s⁻¹.

B6 returned a Kd of 13 nM, a koff of 0.018 s⁻¹ and a kon of 1.4e+06 M⁻¹ s⁻¹.

B7 showed a Kd of 16 nM, a koff of 0.007 s⁻¹ and a kon of 450000 M⁻¹ s⁻¹.

For B8, the Kd stood at 50 nM, the koff was determined as 0.04 s⁻¹ and the kon stood at 790000 M⁻¹ s⁻¹.

For B9, the Kd amounted to 0.83 nM, the koff worked out at 0.00091 s⁻¹ and the kon was 1.1e+06 M⁻¹ s⁻¹.

Another assay concerns the target His-tagged human BCMA (ACRO Biosystems, Cat. #: BCA-H522y) (human). The assay is described as above.
B1: the Kd worked out at 48 nM, the off-rate (koff) was determined as 0.37 s⁻¹ and the on-rate (kon) was 7.8e+06 M⁻¹ s⁻¹.

Turning to B2, the Kd came to 8.5 nM, the koff turned out to be 0.42 s⁻¹ and the kon amounted to 5e+07 M⁻¹ s⁻¹.

For the molecule B3, the Kd is 23 nM, the koff stood at 0.025 s⁻¹ and the kon came to 1.1e+06 M⁻¹ s⁻¹.

For the molecule B4, the Kd came out at 46 nM, the koff was 0.1 s⁻¹ and the kon is 2.3e+06 M⁻¹ s⁻¹.

Consider B5, for which the Kd turned out to be 10 nM, the koff is 0.29 s⁻¹ and the kon worked out at 2.9e+07 M⁻¹ s⁻¹.

With B6, the Kd was found to be 77 nM, the koff was 0.053 s⁻¹ and the kon was determined as 690000 M⁻¹ s⁻¹.

Molecule B7 gave a Kd of 53 nM, a koff of 0.009 s⁻¹ and a kon of 170000 M⁻¹ s⁻¹.

In turn, B8 yielded a Kd of 47 nM, a koff of 0.13 s⁻¹ and a kon of 2.8e+06 M⁻¹ s⁻¹.

B9: the equilibrium dissociation constant (Kd) is 4.9 nM, the koff came to 0.026 s⁻¹ and the kon came out at 5.4e+06 M⁻¹ s⁻¹.
